Paper PMC10139187, “Natural Isoforms of Listeria monocytogenes Virulence Factor Inlb Differ in c-Met Binding Efficiency and Differently Affect Uptake and Survival Listeria in Macrophage †” (International Journal of Molecular Sciences, 2023)

B1: gC1qR (human) (receptor)
chain: LHTDGDKAFVDFLSDEIKEERKIQKHKTLPKMSGGWELELNGTEAKLVRKVAGEKITVTFNINNSIPPTFDGEEEPSQGQKVEEQEPELTSTPNFVVEVIKNDDGKKALVLDCHYPEDEVGQEDEAESDIFSIREVSFQSTGESEWKDTNYTLNTDSLDWALYDHLMDFLADRGVDNTFADELVELSTALEHQEYITFLEDLKSFVKSQ
notes: gC1qR (receptor of the globular heads of C1q), human; the catalogue number may tell them; also called human gC1qR; source: bought: Invitrogen (#11874H08E25)
B2: idInlBCC9, internalin domain (receptor-binding domain) of InlB, isoform of clonal complex CC9 (lineage II) (domain or fragment)
chain: AKVQAETITVPTPIKQIFSDDAFAETIKDNLKKKSVTDAVTQNELNSIDQIIANNSDIKSVQGIQYLPNVTKLFLNGNKLTDIKPLANLKNLGWLFLDENKVKDLSSLKDLKKLKSLSLEHNGISDINGLVHLPQLESLYLGNNKITDITVLSRLTKLDTLSLEDNQISDIVPLAGLTKLQNLYLSKNHISDLRALAGLKNLDVLELFSQECLNKPINHQSNLVVPNTVKNTDGSLVTPEIISDDGDYEKPNVKWHLPEFTNEVSFIFYQPVTIGKAKARFHGRVTQPLKE
modifications: stained with RED-tris-NTA (on the His tag)
notes: 321 aa long; also called idInlB-His-Tag; source: E. coli BL21, purified (HisTrap FF Crude column, dialysed against PBS)

Experiments:
Assay in all cases: MST; idInlB-His-Tag stained with RED-tris-NTA kept constant at 50 nM; unlabeled receptor in twofold dilutions from 0.076 nM to 2.5 uM; PBST (PBS with 0.05% Tween-20); Monolith NT.115, LED power 80%, MST power 40%; fitted to a 1:1 binding model; mean of three independent experiments
[1] = target: idInlBCC1, internalin domain (receptor-binding domain) of InlB, isoform of clonal complex CC1 (lineage I) (Listeria monocytogenes)
[2] = target: idInlBCC7, internalin domain (receptor-binding domain) of InlB, isoform of clonal complex CC7 (lineage II) (Listeria monocytogenes)
[3] = target: B2; settings: both partners purified
[4] = target: T1, chimeric protein HGFR/Fc (c-Met extracellular domain as part of a soluble chimera protein) (human, UniProt P08581 25-932); settings: both partners purified
T1 construct: Hepatocyte growth factor receptor (c-Met, HGFR), human, extracellular domain; natural c-Met is cut into an alpha and a beta chain, written here as one chain; also called human c-Met; source: bought: Sigma-Aldrich (H0536)
T1 sequence (P08581 25-932, change not shown): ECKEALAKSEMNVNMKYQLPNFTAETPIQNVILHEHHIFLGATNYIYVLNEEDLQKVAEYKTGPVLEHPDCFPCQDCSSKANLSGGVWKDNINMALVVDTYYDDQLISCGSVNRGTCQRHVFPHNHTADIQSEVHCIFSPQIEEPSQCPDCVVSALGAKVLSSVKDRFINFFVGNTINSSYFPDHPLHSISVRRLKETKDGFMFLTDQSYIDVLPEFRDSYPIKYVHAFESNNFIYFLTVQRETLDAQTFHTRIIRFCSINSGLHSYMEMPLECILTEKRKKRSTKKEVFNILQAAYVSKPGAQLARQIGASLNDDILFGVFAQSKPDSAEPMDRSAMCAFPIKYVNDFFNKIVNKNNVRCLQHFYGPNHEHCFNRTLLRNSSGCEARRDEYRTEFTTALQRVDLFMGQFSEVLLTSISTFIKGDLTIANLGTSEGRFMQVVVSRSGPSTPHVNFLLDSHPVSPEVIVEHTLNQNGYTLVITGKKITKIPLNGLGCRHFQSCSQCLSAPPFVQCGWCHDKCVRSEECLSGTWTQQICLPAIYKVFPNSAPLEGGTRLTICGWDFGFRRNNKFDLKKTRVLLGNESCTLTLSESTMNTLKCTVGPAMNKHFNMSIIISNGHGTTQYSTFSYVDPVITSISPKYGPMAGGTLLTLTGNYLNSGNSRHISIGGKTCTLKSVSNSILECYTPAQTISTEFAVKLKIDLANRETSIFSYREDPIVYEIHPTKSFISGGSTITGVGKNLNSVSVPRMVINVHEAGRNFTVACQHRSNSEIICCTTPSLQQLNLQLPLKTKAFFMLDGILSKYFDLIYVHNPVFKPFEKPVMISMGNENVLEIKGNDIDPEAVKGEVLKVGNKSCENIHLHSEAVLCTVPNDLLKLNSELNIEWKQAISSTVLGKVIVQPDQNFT

Row | Molecule | Kd [1] [nM] | Kd [2] [nM] | Kd [3] [nM] | Kd [4] [nM]
1 | chimeric protein HGFR/Fc (c-Met extracellular domain as part of a soluble chimera protein) (from UniProt P08581 25-932) (Fc fusion) | 7.4 | 58.7 |  | 
2 | gC1qR (human) (from UniProt Q07021 74-282) (receptor) | 7.4 | 10.2 |  | 
3 | B1 |  |  | 21.5 | 
4 | B2 |  |  |  | 93.6
